# Patent US20030027314A1 (published 2003)
# B1: 4heptadCREB (CREB with 4 heptad repeats appended at the amino terminus) (designed binder)
# chain: ASMTGGQQMGRDPDLEQRAEELARENEELEKEAEELEQENAELENRVAVLENQNKTLIEELKALKDLYCHKSD
# notes: also called 4hep-CREB
# B2: 0heptad-F (F zipper with the basic region deleted) (designed binder)
# chain: ASMTGGQQMGRDPGGGTQQEVLELESRNDRLRKEVEQLERELDTLRGIFRQLPESSLVKAMGNCA
# notes: expressed in E. coli; also called 0heptad-F (H); heterodimerizing zipper
# B3: 4heptad-Fos (c-Fos with the basic region replaced by four acidic heptad repeats) (designed binder)
# chain: MASMTGGQQMGRDPDLEQRAEELARENEELEKEAEELEQENAELEAETDQLEDEKSALQTEIANLLKEKEKLEFILAAHRPACKIP
# notes: How the two entries relate is not explained; also called aFos; aZIP 4heptadFos
# B4: 0heptadMax (dimerization domain of Max without an acidic extension) (other)
# chain: ASMTGGQQMGRDPDLEELEDSFHSLRDSVPSLQGEKASRAQILDKATEYIQYMRRKNHTHQQDIDDLKRQNALLEQQVRALEKARSSAQLQT
# Tests used:
# CREB (unmodified) = biological target: T1, CREB (unmodified); test: thermal melting curve, mixture (FIG. 3)
# T1 construct: also called unmodified CREB
# T1 sequence (chain, from a related filing, looked up): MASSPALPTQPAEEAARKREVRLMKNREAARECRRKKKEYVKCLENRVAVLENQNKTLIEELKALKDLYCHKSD
# [1] = biological target: the molecule itself; test: CD thermal melt, homodimer, 150 mM KCl
# c-Jun (unmodified) [2] = test: thermal melting curve, mixture (FIG. 4)
# Sequence of c-Jun (unmodified) (chain, from a related filing, as listed by the source): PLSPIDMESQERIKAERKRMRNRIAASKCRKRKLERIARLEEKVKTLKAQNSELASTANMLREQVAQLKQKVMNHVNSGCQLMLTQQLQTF
# c-Jun (unmodified) [3] = test: from thermal melts, Kd at 37 °C (FIG. 4)
# [4] = biological target: the molecule itself; test: homodimer, study of FIG. 9 (method not given)
binder,measurement,setting,value
B1,Tm,CREB (unmodified),53 °C
B2,delta G at 25 °C,[1],-8 kcal/mol
B3,Tm,c-Jun (unmodified) [2],61 °C
same,Kd,c-Jun (unmodified) [3],6 nM
B4,Kd,[4],100 nM
